Data from patent US20130344053A1, “Methods of Modifying Insulin Signaling Using Biliverdin Reductase (BVR) and BVR Derived Peptides” (University of Rochester, priority 2010, published 2013).

Legend:
human BVR = target: T1, human BVR (Homo sapiens, UniProt P53004); assay: BVR autophosphorylation; format: biochemical; details: 20 mM Zn acetate, pH 8.4; also with Mn^+2
T1 construct: made in house; host or cells: E. coli (pGEX 4T-2/hBVR)
T1 sequence (P53004 1-296 A154S/G155D/E160D): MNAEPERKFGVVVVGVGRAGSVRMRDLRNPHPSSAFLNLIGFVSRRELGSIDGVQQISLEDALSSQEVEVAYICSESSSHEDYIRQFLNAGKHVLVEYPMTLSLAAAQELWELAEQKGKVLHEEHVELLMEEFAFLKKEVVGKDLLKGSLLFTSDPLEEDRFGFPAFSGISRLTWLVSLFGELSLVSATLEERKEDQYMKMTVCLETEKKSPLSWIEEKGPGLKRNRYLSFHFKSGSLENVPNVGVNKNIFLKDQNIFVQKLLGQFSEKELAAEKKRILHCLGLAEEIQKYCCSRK
Description: In FIG. 9A, effect of tyrosine mutations of BVR on its autophosphorylation is shown. Human wtBVR and BVR with mutations in tyrosine were used in the experiment to determine autophosphorylation of BVR. The reactions were performed as described in the Examples. FIG. 9B is a graph showing that BVR tyrosine kinase activity was checked by incubating 5 μg purified BVR with 5 μg Raytide in 50 μl kinase buffer containing 10 μM labeled ATP for 2 h at 30° C. The aliquots of the reaction were transferred onto P81 Whatman filters and radioactivity due to phosphorylation was measured using a scintillation counter.
FIGS. 10A-B illustrate that autophosphorylation of BVR is an Mn^+2 dependant kinase reaction. […] The effects of different metal ions (30 mM MnCl2, 20 mM MgCl2, 20 mM CaCl2, 20 mM Zn acetate) and their combinations were analyzed as indicated in the text. […] Phosphorylation of wtBVR by IRK in the presence of tyrosine kinase inhibitor genestein (200 μM); DMSO was used as the vehicle for genestein and was included in the control reaction mixture. The reactions were carried out in HEPES buffer (pH 8.0) in the presence of 20 mM MgCl2 as described in the Examples.
(§1) To detect autophosphorylation of BVR, GST-hBVR of wild type (wt) and mutant variants were incubated in 50 mM HEPES buffer (pH 8.4) in the presence of 30 mM MnCl2 and 1 mM DTT for 2 h at 30° C. The reaction was started with the addition of 10 μM ATP labeled with 10 μCi [γ-^32P]-ATP and was stopped with the addition of Laemmli sample buffer. Samples were boiled for 3 min and applied to a 8% SDS-PAGE gels, transferred to a PVDF membrane, and then visualized by autoradiography. […] The reaction was started with the addition of ATP and terminated by adding 120 μl 10% H3PO4. 100 μl aliquots were directly transferred to P81 Whatman filters which were subsequently washed extensively in 0.75% phosphoric acid at room temperature. Finally, the filters were submerged in acetone for 5 min, dried, and retained counts were measured using a Beckman LS 6500 liquid scintillation counter (Beckman Coulter, Fullerton, Calif.).

[1] = target: T2, Peptide 1, mutant IRS-1 peptide (Lys-Lys-His-Ala-Asp-Asp-Gly-Ala-Met-Pro-Met-Ser-Pro-Gly-Val-Ala)
T2 chain: KKHADDGAMPMSPGVA

[2] = target: insulin receptor substrate-1 (IRS-1) peptide Y^608
[3] = target: T3, Peptide 2, IRS-1 peptide (Arg-Thr-Glu-Ser307-Ile-Thr-Ala-Thr-Ser312-Pro-Ala-Ser315-Met-Val-Gly-Gly-Lys-Pro)
T3 chain: RTESITATSPASMVGGKP

IRS-1 = assay: BVR kinase activity with IRS-1 as substrate (wt vs G17 mutant); format: biochemical; details: mutation in ATP binding domain compared with wtBVR
Description: BVR containing mutations on threonine 202 and serine residues, as indicated in the figure, were subjected to autophosphorylation analysis as described in the text. […] 5 μg purified BVR was incubated with 5 μg IRS-1 or HO-1 or HO-2, used as a control for kinase activity, and MBP which was used as the substrate control in 50 μl kinase buffer as described in the Examples. […] Mutant G^17 was compared with wtBVR as a kinase for IRS.
as §1

In the case of `CC(=O)[O-].CC(=O)[O-].[Zn+2]` [Zn^+2, Zn acetate, reference compound], the “BVR autophosphorylation in presence of metal ion” value (human BVR) is reported as “inhibitory to BVR autophosphorylation”.

B1: GST-hBVR fusion protein, wild type (human biliverdin reductase fused to glutathione-S-transferase) (protein)
chain: T1 sequence (P53004 1-296 A154S/G155D/E160D)
With B1 the “phosphorylation of IRS-1 peptide by BVR (32P, cpm)” value (shortened to “phosphorylation of IRS-1 peptide”) [1] was “both the mutated and unmutated peptides were phosphorylated to about the same extent (1049±78 cpm and 1081±183 cpm respectively)”, the “phosphorylation of BVR by IRK in the presence of increasing molar ratio of IRS/BVR” value [2] was “in the presence of increasing amounts of IRS, there was an increase in phosphorylation of BVR by IR up to equimolar ratio of IRS/BVR” and the “phosphorylation of IRS-1 peptide” value [2] was “both the mutated and unmutated peptides were phosphorylated to about the same extent (1049±78 cpm and 1081±183 cpm respectively)”. For the same molecule, the “phosphorylation of IRS-1 peptide” value [3] was “this peptide is also a suitable substrate for BVR (1198±230 cpm)”.

B2: G^17: human BVR point mutant GVGRA to GVARA in ATP binding domain (protein, UniProt P53004 3-296, looked up, variant G17A)
Biliverdin reductase A: AEPERKFGVVVVGVARAGSVRMRDLRNPHPSSAFLNLIGFVSRRELGSIDGVQQISLEDALSSQEVEVAYICSESSSHEDYIRQFLNAGKHVLVEYPMTLSLAAAQELWELAEQKGKVLHEEHVELLMEEFAFLKKEVVGKDLLKGSLLFTAGPLEEERFGFPAFSGISRLTWLVSLFGELSLVSATLEERKEDQYMKMTVCLETEKKSPLSWIEEKGPGLKRNRYLSFHFKSGSLENVPNVGVNKNIFLKDQNIFVQKLLGQFSEKELAAEKKRILHCLGLAEEIQKYCCSRK
With B2 the “IRS phosphorylation by BVR” value (IRS-1) was “for the most part, prevented IRS phosphorylation by BVR”.
